{"source": "the supplement of paper PMC10567573", "parents": {"B1": {"name": "CCNC (parent)", "chain": "QSSHYLQWILDKQDLLKERQKDLK"}}}
{"variants_of": "B1", "test": "protein stability index of a GFP-peptide fusion (GPS, HEK-293T) (PSI 1-6); higher = more stable", "details": "c terminus: a fixed tail appended"}
{"variant": "QSSHYLQWILDKQDLKKERQKDLK", "protein stability index": 3.54}
{"variant": "QSSHYLQWILDKQDLMKERQKDLK", "protein stability index": 2.52}
{"variant": "QSSHYLQWILDKQDLNKERQKDLK", "protein stability index": 4}
{"variant": "QSSHYLQWILDKQDLPKERQKDLK", "protein stability index": 4.26}
{"variant": "QSSHYLQWILDKQDLQKERQKDLK", "protein stability index": 4.15}
{"variant": "QSSHYLQWILDKQDLRKERQKDLK", "protein stability index": 3.78}
{"variant": "QSSHYLQWILDKQDLSKERQKDLK", "protein stability index": 4.05}
{"variant": "QSSHYLQWILDKQDLTKERQKDLK", "protein stability index": 3.73}
{"variant": "QSSHYLQWILDKQDLVKERQKDLK", "protein stability index": 4.04}
{"variant": "QSSHYLQWILDKQDLWKERQKDLK", "protein stability index": 2.92}
{"variant": "QSSHYLQWILDKQDLYKERQKDLK", "protein stability index": 2.57}
{"variant": "QSSHYLQWILDKQDLLAERQKDLK", "protein stability index": 3.21}
{"variant": "QSSHYLQWILDKQDLLCERQKDLK", "protein stability index": 2.71}
{"variant": "QSSHYLQWILDKQDLLDERQKDLK", "protein stability index": 2.94}
{"variant": "QSSHYLQWILDKQDLLEERQKDLK", "protein stability index": 3.35}
{"variant": "QSSHYLQWILDKQDLLFERQKDLK", "protein stability index": 2.62}
{"variant": "QSSHYLQWILDKQDLLGERQKDLK", "protein stability index": 2.96}
{"variant": "QSSHYLQWILDKQDLLHERQKDLK", "protein stability index": 2.93}
{"variant": "QSSHYLQWILDKQDLLIERQKDLK", "protein stability index": 2.09}
{"variant": "QSSHYLQWILDKQDLLLERQKDLK", "protein stability index": 2.68}
{"variant": "QSSHYLQWILDKQDLLMERQKDLK", "protein stability index": 3.14}
{"variant": "QSSHYLQWILDKQDLLNERQKDLK", "protein stability index": 3.53}
{"variant": "QSSHYLQWILDKQDLLPERQKDLK", "protein stability index": 3.38}
{"variant": "QSSHYLQWILDKQDLLQERQKDLK", "protein stability index": 4.4}
{"variant": "QSSHYLQWILDKQDLLRERQKDLK", "protein stability index": 2.33}
{"variant": "QSSHYLQWILDKQDLLSERQKDLK", "protein stability index": 3.66}
{"variant": "QSSHYLQWILDKQDLLTERQKDLK", "protein stability index": 3.34}
{"variant": "QSSHYLQWILDKQDLLVERQKDLK", "protein stability index": 2.82}
{"variant": "QSSHYLQWILDKQDLLWERQKDLK", "protein stability index": 1.97}
{"variant": "QSSHYLQWILDKQDLLYERQKDLK", "protein stability index": 2.09}
{"variant": "QSSHYLQWILDKQDLLKARQKDLK", "protein stability index": 3.67}
{"variant": "QSSHYLQWILDKQDLLKCRQKDLK", "protein stability index": 2.28}
{"variant": "QSSHYLQWILDKQDLLKDRQKDLK", "protein stability index": 3.08}
{"variant": "QSSHYLQWILDKQDLLKFRQKDLK", "protein stability index": 2.15}
{"variant": "QSSHYLQWILDKQDLLKGRQKDLK", "protein stability index": 2.53}
{"variant": "QSSHYLQWILDKQDLLKHRQKDLK", "protein stability index": 2.54}
{"variant": "QSSHYLQWILDKQDLLKIRQKDLK", "protein stability index": 2.84}
{"variant": "QSSHYLQWILDKQDLLKKRQKDLK", "protein stability index": 2.89}
{"variant": "QSSHYLQWILDKQDLLKLRQKDLK", "protein stability index": 2.33}
{"variant": "QSSHYLQWILDKQDLLKMRQKDLK", "protein stability index": 2.02}
{"variant": "QSSHYLQWILDKQDLLKNRQKDLK", "protein stability index": 2.53}
{"variant": "QSSHYLQWILDKQDLLKPRQKDLK", "protein stability index": 2.56}
{"variant": "QSSHYLQWILDKQDLLKQRQKDLK", "protein stability index": 2.29}
{"variant": "QSSHYLQWILDKQDLLKRRQKDLK", "protein stability index": 2.63}
{"variant": "QSSHYLQWILDKQDLLKSRQKDLK", "protein stability index": 2.54}
{"variant": "QSSHYLQWILDKQDLLKTRQKDLK", "protein stability index": 2.7}
{"variant": "QSSHYLQWILDKQDLLKVRQKDLK", "protein stability index": 2.82}
{"variant": "QSSHYLQWILDKQDLLKWRQKDLK", "protein stability index": 1.8}
{"variant": "QSSHYLQWILDKQDLLKYRQKDLK", "protein stability index": 2.2}
{"variant": "QSSHYLQWILDKQDLLKEAQKDLK", "protein stability index": 2.75}
{"variant": "QSSHYLQWILDKQDLLKECQKDLK", "protein stability index": 2.42}
{"variant": "QSSHYLQWILDKQDLLKEDQKDLK", "protein stability index": 3.93}
{"variant": "QSSHYLQWILDKQDLLKEEQKDLK", "protein stability index": 3.81}
{"variant": "QSSHYLQWILDKQDLLKEFQKDLK", "protein stability index": 2.14}
{"variant": "QSSHYLQWILDKQDLLKEGQKDLK", "protein stability index": 3.25}
{"variant": "QSSHYLQWILDKQDLLKEHQKDLK", "protein stability index": 3.03}
{"variant": "QSSHYLQWILDKQDLLKEIQKDLK", "protein stability index": 2.29}
{"variant": "QSSHYLQWILDKQDLLKEKQKDLK", "protein stability index": 3.27}
{"variant": "QSSHYLQWILDKQDLLKELQKDLK", "protein stability index": 2.06}
{"variant": "QSSHYLQWILDKQDLLKEMQKDLK", "protein stability index": 2.12}
{"variant": "QSSHYLQWILDKQDLLKENQKDLK", "protein stability index": 3.72}
{"variant": "QSSHYLQWILDKQDLLKEPQKDLK", "protein stability index": 3.56}
{"variant": "QSSHYLQWILDKQDLLKEQQKDLK", "protein stability index": 3.5}
{"variant": "QSSHYLQWILDKQDLLKESQKDLK", "protein stability index": 2.94}
{"variant": "QSSHYLQWILDKQDLLKETQKDLK", "protein stability index": 3.14}
{"variant": "QSSHYLQWILDKQDLLKEVQKDLK", "protein stability index": 2.19}
{"variant": "QSSHYLQWILDKQDLLKEWQKDLK", "protein stability index": 2.64}
{"variant": "QSSHYLQWILDKQDLLKEYQKDLK", "protein stability index": 2.72}
{"variant": "QSSHYLQWILDKQDLLKERAKDLK", "protein stability index": 3.12}
{"variant": "QSSHYLQWILDKQDLLKERCKDLK", "protein stability index": 2.46}
{"variant": "QSSHYLQWILDKQDLLKERDKDLK", "protein stability index": 3.01}
{"variant": "QSSHYLQWILDKQDLLKEREKDLK", "protein stability index": 2.96}
{"variant": "QSSHYLQWILDKQDLLKERFKDLK", "protein stability index": 2.67}
{"variant": "QSSHYLQWILDKQDLLKERGKDLK", "protein stability index": 2.98}
{"variant": "QSSHYLQWILDKQDLLKERHKDLK", "protein stability index": 3.16}
{"variant": "QSSHYLQWILDKQDLLKERIKDLK", "protein stability index": 1.66}
{"variant": "QSSHYLQWILDKQDLLKERKKDLK", "protein stability index": 3.07}
{"variant": "QSSHYLQWILDKQDLLKERLKDLK", "protein stability index": 2.17}
{"variant": "QSSHYLQWILDKQDLLKERMKDLK", "protein stability index": 1.99}
{"variant": "QSSHYLQWILDKQDLLKERNKDLK", "protein stability index": 3.21}
{"variant": "QSSHYLQWILDKQDLLKERPKDLK", "protein stability index": 2.76}
{"variant": "QSSHYLQWILDKQDLLKERRKDLK", "protein stability index": 3.5}
{"variant": "QSSHYLQWILDKQDLLKERSKDLK", "protein stability index": 3.38}
{"variant": "QSSHYLQWILDKQDLLKERTKDLK", "protein stability index": 3.2}
{"variant": "QSSHYLQWILDKQDLLKERVKDLK", "protein stability index": 2.69}
{"variant": "QSSHYLQWILDKQDLLKERWKDLK", "protein stability index": 1.44}
{"variant": "QSSHYLQWILDKQDLLKERYKDLK", "protein stability index": 2.38}
{"variant": "QSSHYLQWILDKQDLLKERQADLK", "protein stability index": 2.78}
{"variant": "QSSHYLQWILDKQDLLKERQCDLK", "protein stability index": 2.42}
{"variant": "QSSHYLQWILDKQDLLKERQDDLK", "protein stability index": 2.83}
{"variant": "QSSHYLQWILDKQDLLKERQEDLK", "protein stability index": 2.99}
{"variant": "QSSHYLQWILDKQDLLKERQFDLK", "protein stability index": 1.69}
{"variant": "QSSHYLQWILDKQDLLKERQGDLK", "protein stability index": 2.87}
{"variant": "QSSHYLQWILDKQDLLKERQHDLK", "protein stability index": 2.45}
